Measured values published in patent WO2019096294A1 (dated 2019).

Columns and labels:
[1] = molecular target: T1, His-tagged human thrombin (human, UniProt P00734 328-622); assay: binding ELISA; biotinylated His-tagged human thrombin on streptavidin plate
[2] = molecular target: T1, His-tagged human thrombin; assay: Biacore SPR; ratio of the affinities for thrombin and prothrombin
[3] = molecular target: T2, His-tagged human prothrombin (human, UniProt P00734 44-622, limits assumed); assay: binding ELISA; His-tagged human prothrombin coated on plate
T2 construct: not shown: His tag

B1: h1601-008 (antibody, V domains shown)
VH: EVQLVESGGGLVQPGGSLRLSCAASGFTFSDYYMAWVRQAPGKGLEWVSNINSDGSSTYYLDSLKSRFTISRDNSKNTLYLQMNSLKAEDTAVYYCARDHYHGNSYVFDYWGQGTTVTVSS
VL: DIQMTQSPSSLSASVGDRVTITCKASEDIYNRLAWYQQKPGKAPRLIISGATSLETGVPSRFSGSGSGKDYTLTISSLQPEDFATYYCQQYWSTPWTFGGGTKVEIK
notes: Humanized parent antibody from WO2017133673A1; Only VH and VL are tied to it; it was detected with an anti-human secondary antibody and captured with an anti-human capture kit
Which results are given for B1?
EC50 [1]: 0.375 µg/mL; selective activity (affinity for thrombin relative to affinity for prothrombin) [2]: 11.2; EC50 [3]: 0.151 µg/mL
